# Results: patent US20040106557
# Entries after “also recorded” stand apart in the source; their conditions may differ.
# Tests used:
# [1] = system: chemically synthesized peptide A-1 (A-1-1, A-1 parent)
# [2] = system: GST-B-2 (peptide B-2 expressed as glutathione S-transferase fusion protein)
# [3] = system: chemically synthesized peptide C-4 without GA flanks (C-4-1, C4 parent)
# [4] = system: GST-A-1 (peptide A-1 expressed as glutathione S-transferase fusion protein)
# [5] = system: SKSKSKS-aca-CVAYCIEHHCWTC (SKSKSKS-tailed peptide C4)
# Target sequence (chain, as listed by the source): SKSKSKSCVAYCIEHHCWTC
# [6] = system: GST-C-4 (peptide C-4 expressed as glutathione S-transferase fusion protein)
# [7] = system: mercaptoethanol-reduced C4
# [8] = molecular target: insulin like growth factor-binding protein 3 (IGF-BP-3) (UniProt P17936)
# Chain of insulin like growth factor-binding protein 3 (IGF-BP-3) (P17936 28-291): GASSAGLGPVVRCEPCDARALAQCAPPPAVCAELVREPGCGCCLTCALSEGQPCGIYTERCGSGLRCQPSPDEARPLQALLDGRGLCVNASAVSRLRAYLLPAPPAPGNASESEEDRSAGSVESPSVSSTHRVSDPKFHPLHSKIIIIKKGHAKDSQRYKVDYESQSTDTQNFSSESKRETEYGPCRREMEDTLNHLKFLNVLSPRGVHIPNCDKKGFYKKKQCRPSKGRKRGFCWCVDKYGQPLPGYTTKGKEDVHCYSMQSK
substance,measurement,setting,value
"Prostate specific antigen (PSA), purified from human seminal fluid","cleavage of IGF-BP-3 by PSA (IGF-BP-3 IFMA), 100-fold molar excess of peptide",[1],about 70% cleavage of IGF-BP-3
same,PSA activity against the chromogenic substrate S-2586 (A405),[2],The enzyme activity of PSA was significantly enhanced by the GST-peptides
same,PSA enzyme activity (A405) on substrate S-2586; PSA 0.33 µM,[3],Unlabelled C4: rises to about 0.16 at 95 min; PSA control about 0.095; also recorded: C4: rises to about 0.070 at 58 min; PSA alone about 0.040
same,"PSA enzyme activity (A405 nm) on substrate S-2586; PSA 0.33 µM, peptide in 30-fold molar excess",[3],non-tailed C4: rises linearly to about 0.063 at 65 min; PSA control about 0.021
same,"cleavage of IGF-BP-3 by PSA (IGF-BP-3 IFMA), 100-fold molar excess of peptide",[3],about 70% cleavage of IGF-BP-3
same,PSA activity against the chromogenic substrate S-2586 (A405),[4],The enzyme activity of PSA was significantly enhanced by the GST-peptides
same,"PSA enzyme activity (A405) on substrate S-2586; PSA 0.33 µM, peptide in 30-fold molar excess",125I-labeled C4,"125-iodinated C4: rises to about 0.048 at 58 min, little above PSA alone (about 0.040) and far under C4 (about 0.070)"
same,"PSA enzyme activity (A405 nm) on substrate S-2586; PSA 0.33 µM, peptide in 30-fold molar excess",[5],"SKSKSKS-tailed C4: rises linearly to about 0.060 at 65 min, just under non-tailed C4; PSA control about 0.021"
same,PSA activity against the chromogenic substrate S-2586 (A405),[6],stimulating PSA activity against the chromogenic substrate about 5-fold
same,PSA enzyme activity (A405) on substrate S-2586; PSA 0.33 µM,[7],"mercaptoethanol-reduced C4: curve lies on that of the PSA control over the whole time, about 0.095 at 95 min: no enhancement"
same,decrease in IGF-BP-3 immunoreactivity (IFMA) after 16 h at 37 °C,[8],PSA alone slowly cleaved IGF-BP-3 as revealed by an 30% decrease in immunoreactivity
same,"PSA enzyme activity (A405) on substrate S-2586; PSA 0.33 µM, peptide in 30-fold molar excess",Tc99m-labeled C4,"C4-technetium-conjugate: rises to about 0.12 at 95 min, between unlabelled C4 (about 0.16) and the PSA control (about 0.095); wide error bars"
same,PSA enzyme activity (A405) on substrate S-2586; PSA 0.33 µM with 100 µL of C18 fractions of the Eu-labelling mixture of C4,Eu-labelled C4-peptide,"at 60 min fraction 27 reaches about 0.043, fraction 26 about 0.037, fraction 28 about 0.024; all other fractions and the PSA control lie together at about 0.006-0.011"
